Experimental data from patent US20230065562A1, “DUAL CONTROLS FOR THERAPEUTIC CELL ACTIVATION OR ELIMINATION” (Bellicum Pharmaceuticals, Inc., priority 2015, published 2023).
“Also recorded” adds a separate entry of the source.

Test system: HEK293T/16 cells
Experiment: Secreted alkaline phosphatase (SEAP)-based surrogate killing assay of iCasp9 mutants
Type: cell-based, human
Settings: for Basal Activity (relative to wild type/unmodified Caspase-9): SEAP assay without AP1903; for basal activity: relative SEAP activity Units: no AP1903
Procedure: Early passage HEK293T/16 cells (ATCC, Manassas, Va.) were maintained in IMDM, GlutaMAX™ (Life Technologies, Carlsbad, Calif.) supplemented with 10% FBS, 100 U/mL penicillin, and 100 […] until transfection in a humidified, 37° C., 5% CO2/95% air atmosphere. Cells in logarithmic-phase growth were transiently transfected with 800 ng to 2 μg of expression plasmid encoding iCasp9 mutants and 500 ng of an expression plasmid encoding SRα promoter driven SEAP per million cells in 15-mL conical tubes. […] GeneJammer® Transfection Reagent at a ratio of 3 μl per ug of plasmid DNA was used to transiently transfect HEK293T/16 cells in the absence of antibiotics. 100 μl or 2 mL of the transfection mixture was added to each well in 96-well or 6-well plate, respectively.
Briefly, after 65° C. heat denaturation for 45 minutes to reduce background caused by endogenous (and serum-derived) alkaline phosphatases that are sensitive to heat, 5 μl of supernatants was added to 95 μl of PBS and added to 100 μl of substrate buffer, containing 1 μl of 100 mM 4-methylumbelliferyl phosphate (4-MUP; Sigma, St. Louis, Mo.) re-suspended in 2 M diethanolamine. Hydrolysis of 4-MUP by SEAP produces a fluorescent […] with excitation/emission (355/460 nm), which can be easily measured. Assays were performed in black opaque 96-well plates to minimize fluorescence leakage between wells. […] of the mixture was seeded onto each well of a 96-well plate. […] For the assay, 4-methylumbelliferyl phosphate substrate was hydrolyzed by SEAP to 4-methylumbelliferon, a metabolite that can be excited with 364 nm and detected with an emission filter of 448 nm. Since SEAP is used as a marker for cell viability, reduced SEAP reading corresponds with increased iCaspase-9 activities.

Molecule | Basal Activity (relative to wild type/unmodified Caspase-9) | also measured
F404W: modified iCasp9, F404W (protein) VDGFGDVGALESLRGNADLAYILSMEPCGHCLIINNVNFCRESGLRTRTGSNIDCEKLRRRFSSLHFMVEVKGDLTAKKMVLALLELARQDHGALDCCVVVILSHGCQASHLQFPGAVYGTDGCPVSVEKIVNIFNGTSCPSLGGKPKLFFIQACGGEQKDHGFEVASTSPEDESPGSNPEPDATPFQEGLRTFDQLDAISSLPTPSDIFVSYSTFPGFVSWRDPKSGSWYVETLDDIFEQWAHSEDLQSLLLRVANAVSVKGIYKQMPGCWNFLRKKLFFKTSASRA | lowered basal activity; also recorded: Decreased | 
F406T: modified iCasp9, F406T (protein) VDGFGDVGALESLRGNADLAYILSMEPCGHCLIINNVNFCRESGLRTRTGSNIDCEKLRRRFSSLHFMVEVKGDLTAKKMVLALLELARQDHGALDCCVVVILSHGCQASHLQFPGAVYGTDGCPVSVEKIVNIFNGTSCPSLGGKPKLFFIQACGGEQKDHGFEVASTSPEDESPGSNPEPDATPFQEGLRTFDQLDAISSLPTPSDIFVSYSTFPGFVSWRDPKSGSWYVETLDDIFEQWAHSEDLQSLLLRVANAVSVKGIYKQMPGCFNTLRKKLFFKTSASRA | lowered basal activity; also recorded: Decreased | 
F406L: modified iCasp9, F406L (protein) VDGFGDVGALESLRGNADLAYILSMEPCGHCLIINNVNFCRESGLRTRTGSNIDCEKLRRRFSSLHFMVEVKGDLTAKKMVLALLELARQDHGALDCCVVVILSHGCQASHLQFPGAVYGTDGCPVSVEKIVNIFNGTSCPSLGGKPKLFFIQACGGEQKDHGFEVASTSPEDESPGSNPEPDATPFQEGLRTFDQLDAISSLPTPSDIFVSYSTFPGFVSWRDPKSGSWYVETLDDIFEQWAHSEDLQSLLLRVANAVSVKGIYKQMPGCFNLLRKKLFFKTSASRA | lowered basal activity and dead | 
F404A: modified iCasp9, F404A (protein, UniProt P55211 1-416, looked up, variant F404A, FKBP12-F36V fusion (iCasp9), CARD deleted) MDEADRRLLRRCRLRLVEELQVDQLWDALLSRELFRPHMIEDIQRAGSGSRRDQARQLIIDLETRGSQALPLFISCLEDTGQDMLASFLRTNRQAAKLSKPTLENLTPVVLRPEIRKPEVLRPETPRPVDIGSGGFGDVGALESLRGNADLAYILSMEPCGHCLIINNVNFCRESGLRTRTGSNIDCEKLRRRFSSLHFMVEVKGDLTAKKMVLALLELAQQDHGALDCCVVVILSHGCQASHLQFPGAVYGTDGCPVSVEKIVNIFNGTSCPSLGGKPKLFFIQACGGEQKDHGFEVASTSPEDESPGSNPEPDATPFQEGLRTFDQLDAISSLPTPSDIFVSYSTFPGFVSWRDPKSGSWYVETLDDIFEQWAHSEDLQSLLLRVANAVSVKGIYKQMPGCANFLRKKLFFKTS | lowered basal activity and dead | 
F406A: modified iCasp9, F406A (protein, UniProt P55211 1-416, looked up, variant F406A, FKBP12-F36V fusion (iCasp9), CARD deleted) MDEADRRLLRRCRLRLVEELQVDQLWDALLSRELFRPHMIEDIQRAGSGSRRDQARQLIIDLETRGSQALPLFISCLEDTGQDMLASFLRTNRQAAKLSKPTLENLTPVVLRPEIRKPEVLRPETPRPVDIGSGGFGDVGALESLRGNADLAYILSMEPCGHCLIINNVNFCRESGLRTRTGSNIDCEKLRRRFSSLHFMVEVKGDLTAKKMVLALLELAQQDHGALDCCVVVILSHGCQASHLQFPGAVYGTDGCPVSVEKIVNIFNGTSCPSLGGKPKLFFIQACGGEQKDHGFEVASTSPEDESPGSNPEPDATPFQEGLRTFDQLDAISSLPTPSDIFVSYSTFPGFVSWRDPKSGSWYVETLDDIFEQWAHSEDLQSLLLRVANAVSVKGIYKQMPGCFNALRKKLFFKTS | lowered basal activity; also recorded: Decreased | 
N405A: modified iCasp9, N405A (protein, UniProt P55211 1-416, looked up, variant N405A, FKBP12-F36V fusion (iCasp9), CARD deleted) MDEADRRLLRRCRLRLVEELQVDQLWDALLSRELFRPHMIEDIQRAGSGSRRDQARQLIIDLETRGSQALPLFISCLEDTGQDMLASFLRTNRQAAKLSKPTLENLTPVVLRPEIRKPEVLRPETPRPVDIGSGGFGDVGALESLRGNADLAYILSMEPCGHCLIINNVNFCRESGLRTRTGSNIDCEKLRRRFSSLHFMVEVKGDLTAKKMVLALLELAQQDHGALDCCVVVILSHGCQASHLQFPGAVYGTDGCPVSVEKIVNIFNGTSCPSLGGKPKLFFIQACGGEQKDHGFEVASTSPEDESPGSNPEPDATPFQEGLRTFDQLDAISSLPTPSDIFVSYSTFPGFVSWRDPKSGSWYVETLDDIFEQWAHSEDLQSLLLRVANAVSVKGIYKQMPGCFAFLRKKLFFKTS | no effect | 
N405T: modified iCasp9, N405T (protein, UniProt P55211 1-416, looked up, variant N405T, FKBP12-F36V fusion (iCasp9), CARD deleted) MDEADRRLLRRCRLRLVEELQVDQLWDALLSRELFRPHMIEDIQRAGSGSRRDQARQLIIDLETRGSQALPLFISCLEDTGQDMLASFLRTNRQAAKLSKPTLENLTPVVLRPEIRKPEVLRPETPRPVDIGSGGFGDVGALESLRGNADLAYILSMEPCGHCLIINNVNFCRESGLRTRTGSNIDCEKLRRRFSSLHFMVEVKGDLTAKKMVLALLELAQQDHGALDCCVVVILSHGCQASHLQFPGAVYGTDGCPVSVEKIVNIFNGTSCPSLGGKPKLFFIQACGGEQKDHGFEVASTSPEDESPGSNPEPDATPFQEGLRTFDQLDAISSLPTPSDIFVSYSTFPGFVSWRDPKSGSWYVETLDDIFEQWAHSEDLQSLLLRVANAVSVKGIYKQMPGCFTFLRKKLFFKTS | increased basal activity | 
G402I: modified iCasp9, G402I (protein, UniProt P55211 1-416, looked up, variant G402I, FKBP12-F36V fusion (iCasp9), CARD deleted) MDEADRRLLRRCRLRLVEELQVDQLWDALLSRELFRPHMIEDIQRAGSGSRRDQARQLIIDLETRGSQALPLFISCLEDTGQDMLASFLRTNRQAAKLSKPTLENLTPVVLRPEIRKPEVLRPETPRPVDIGSGGFGDVGALESLRGNADLAYILSMEPCGHCLIINNVNFCRESGLRTRTGSNIDCEKLRRRFSSLHFMVEVKGDLTAKKMVLALLELAQQDHGALDCCVVVILSHGCQASHLQFPGAVYGTDGCPVSVEKIVNIFNGTSCPSLGGKPKLFFIQACGGEQKDHGFEVASTSPEDESPGSNPEPDATPFQEGLRTFDQLDAISSLPTPSDIFVSYSTFPGFVSWRDPKSGSWYVETLDDIFEQWAHSEDLQSLLLRVANAVSVKGIYKQMPICFNFLRKKLFFKTS | dead | Basal Activity (relative to wild type/unmodified Caspase-9) (listed as G4021): catalytically inactive
F406W: modified iCasp9, F406W (protein, UniProt P55211 1-416, looked up, variant F406W, FKBP12-F36V fusion (iCasp9), CARD deleted) MDEADRRLLRRCRLRLVEELQVDQLWDALLSRELFRPHMIEDIQRAGSGSRRDQARQLIIDLETRGSQALPLFISCLEDTGQDMLASFLRTNRQAAKLSKPTLENLTPVVLRPEIRKPEVLRPETPRPVDIGSGGFGDVGALESLRGNADLAYILSMEPCGHCLIINNVNFCRESGLRTRTGSNIDCEKLRRRFSSLHFMVEVKGDLTAKKMVLALLELAQQDHGALDCCVVVILSHGCQASHLQFPGAVYGTDGCPVSVEKIVNIFNGTSCPSLGGKPKLFFIQACGGEQKDHGFEVASTSPEDESPGSNPEPDATPFQEGLRTFDQLDAISSLPTPSDIFVSYSTFPGFVSWRDPKSGSWYVETLDDIFEQWAHSEDLQSLLLRVANAVSVKGIYKQMPGCFNWLRKKLFFKTS | lowered basal activity; also recorded: Decreased | 
D330A-N405Q: modified iCasp9 double mutant (SEQ ID NO: 28) (protein) GFGDVGALESLRGNADLAYILSMEPCGHCLIINNVNFCRESGLRTRTGSNIDCEKLRRRFSSLHFMVEVKGDLTAKKMVLALLELARQDHGALDCCVVVILSHGCQASHLQFPGAVYGTDGCPVSVEKIVNIFNGTSCPSLGGKPKLFFIQACGGEQKDHGFEVASTSPEDESPGSNPEPDATPFQEGLRTFDQLAAISSLPTPSDIFVSYSTFPGFVSWRDPKSGSWYVETLDDIFEQWAHSEDLQSLLLRVANAVSVKGIYKQMPGCFQFLRKKLFFKTS | intermediate; also recorded: Decreased | basal activity: relative SEAP activity Units (1 μg iCasp9 per million cells): 205772 Units; basal activity: relative SEAP activity Units (2 μg iCasp9 per million cells): 174366 Units; IC50 (AP1903, SEAP screening assay): 0.05 nM
